From the RNAGym collection of RNA variant scans (doi:10.1073/pnas.2313332121)

B1: TPR t1 (parent)
chain: GACCAAUCUGCCCUCAGAGCUCGAGAACAUCUUCGGAUGCAGAGGAGGCAGGCUUCGGUGGCGCGAUAGCGCCAACGUCCUCAACCUCCAAUGCAUCCCACCACAUGAUGAUGCCUGAAGAGCCUUGGUUUUUUG

Variants of: B1
Assay: polymerase ribozyme fitness, log enrichment relative to wild type (log ratio); higher = more active; in vitro selection for triplet polymerase activity
How it was run: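 Fitness is a logarithmic measure of how a genotype enriched relative to the wild type, with replicate averages weighted by inverse variance. The logarithm uses base 2, and enrichment came from Illumina sequencing of input and output libraries. Those libraries were PCR-built, transcribed mutants of each subunit of a heterodimeric triplet polymerase ribozyme, passed through one triplicate in vitro selection round that included frozen incubation at −7 °C, gel excision of extended constructs and streptavidin-bead capture. Genotypes were kept only if they had ≥10 input reads and ≥1 read per output.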

**Q.** Which “polymerase ribozyme fitness (log ratio)” value does the source give for G58A C99U here?
**A.** The value was -2.8.

**Q.** Which “polymerase ribozyme fitness (log ratio)” value does the source give for U59C A66U C102U C124U here?
**A.** Its value is -4.09.

**Q.** With G57U G71U U87G as the variant, how does the “polymerase ribozyme fitness (log ratio)” value read?
**A.** Its value is -0.217.

**Q.** Which “polymerase ribozyme fitness (log ratio)” value does the source give for G57U C94A C98U C115U here?
**A.** Its value is -5.64.

**Q.** Which “polymerase ribozyme fitness (log ratio)” value does the source give for U59C A105U here?
**A.** The value was -2.63.

**Q.** For U59C C72G A118C, which “polymerase ribozyme fitness (log ratio)” value is on record?
**A.** Its value is -3.55.

**Q.** For G57U U87A, which “polymerase ribozyme fitness (log ratio)” value is on record?
**A.** Its value is -0.845.

**Q.** For G57U U87G, which “polymerase ribozyme fitness (log ratio)” value is on record?
**A.** Its value is 0.0269.

**Q.** For U59A C82U, which “polymerase ribozyme fitness (log ratio)” value is on record?
**A.** Its value is -0.407.

**Q.** Which “polymerase ribozyme fitness (log ratio)” value does the source give for U59A C82G here?
**A.** The value was -0.809.

**Q.** Which “polymerase ribozyme fitness (log ratio)” value does the source give for G58C C80A U96G here?
**A.** The value was -4.46.

**Q.** For G57U G60C A84U C99A C101U G117U, which “polymerase ribozyme fitness (log ratio)” value is on record?
**A.** Its value is -6.95.

**Q.** For G58C C72U, which “polymerase ribozyme fitness (log ratio)” value is on record?
**A.** The value was -0.231.

**Q.** Which “polymerase ribozyme fitness (log ratio)” value does the source give for U59A A83U G93A here?
**A.** Its value is -0.452.

**Q.** Which “polymerase ribozyme fitness (log ratio)” value does the source give for G58C A111G G120A here?
**A.** Its value is -1.36.

**Q.** For U59C, which “polymerase ribozyme fitness (log ratio)” value is on record?
**A.** Its value is -0.0998.

**Q.** For U59A, which “polymerase ribozyme fitness (log ratio)” value is on record?
**A.** Its value is 0.0811.

**Q.** With G58C C86A C115U as the variant, how does the “polymerase ribozyme fitness (log ratio)” value read?
**A.** Its value is -2.72.

**Q.** With G58C U116C as the variant, how does the “polymerase ribozyme fitness (log ratio)” value read?
**A.** The value was -0.944.

**Q.** With G58C as the variant, how does the “polymerase ribozyme fitness (log ratio)” value read?
**A.** The value was 0.031.

**Q.** For G58A, which “polymerase ribozyme fitness (log ratio)” value is on record?
**A.** The value was 0.0445.

**Q.** Which “polymerase ribozyme fitness (log ratio)” value does the source give for G58U here?
**A.** Its value is -0.329.

**Q.** For U59A C86G C98U, which “polymerase ribozyme fitness (log ratio)” value is on record?
**A.** The value was -3.38.

**Q.** For G58C C101U, which “polymerase ribozyme fitness (log ratio)” value is on record?
**A.** The value was -0.386.

**Q.** With G58C C73A U81A C89A as the variant, how does the “polymerase ribozyme fitness (log ratio)” value read?
**A.** The value was -3.31.

**Q.** Which “polymerase ribozyme fitness (log ratio)” value does the source give for U59A C64U C85A G110U U133C here?
**A.** Its value is -2.9.

**Q.** For G58U C115A, which “polymerase ribozyme fitness (log ratio)” value is on record?
**A.** The value was -0.324.

**Q.** Which “polymerase ribozyme fitness (log ratio)” value does the source give for G57U U87A C89G C104U here?
**A.** Its value is -4.28.

**Q.** For G58A C72G G127A, which “polymerase ribozyme fitness (log ratio)” value is on record?
**A.** Its value is -1.35.

**Q.** Which “polymerase ribozyme fitness (log ratio)” value does the source give for G58A A91C C101A here?
**A.** The value was -1.1.

**Q.** Which “polymerase ribozyme fitness (log ratio)” value does the source give for G58U A111C here?
**A.** Its value is -0.00673.

**Q.** For G57U C123A, which “polymerase ribozyme fitness (log ratio)” value is on record?
**A.** Its value is 0.124.

**Q.** Which “polymerase ribozyme fitness (log ratio)” value does the source give for G57U G60C G61C G113A here?
**A.** The value was -4.44.

**Q.** For U59A C72A, which “polymerase ribozyme fitness (log ratio)” value is on record?
**A.** Its value is -1.18.

**Q.** Which “polymerase ribozyme fitness (log ratio)” value does the source give for U59A U96A here?
**A.** Its value is -1.66.

**Q.** For G58U G63A C94U, which “polymerase ribozyme fitness (log ratio)” value is on record?
**A.** The value was -0.678.

**Q.** With U59C G69U U81A as the variant, how does the “polymerase ribozyme fitness (log ratio)” value read?
**A.** Its value is -1.48.

**Q.** With G58C C94A as the variant, how does the “polymerase ribozyme fitness (log ratio)” value read?
**A.** The value was -0.207.

**Q.** With G57U U96C G110U as the variant, how does the “polymerase ribozyme fitness (log ratio)” value read?
**A.** The value was -2.25.

**Q.** With G58C G63C C82A U106G G113U as the variant, how does the “polymerase ribozyme fitness (log ratio)” value read?
**A.** The value was -5.77.

**Q.** With G58A C99U G122A as the variant, how does the “polymerase ribozyme fitness (log ratio)” value read?
**A.** The value was -5.04.

**Q.** For U59A A74G C114G U126A G128A, which “polymerase ribozyme fitness (log ratio)” value is on record?
**A.** The value was -3.97.

**Q.** With G58A G117A G120A U132C as the variant, how does the “polymerase ribozyme fitness (log ratio)” value read?
**A.** The value was -3.08.

**Q.** With U59A G71A C101U C124A as the variant, how does the “polymerase ribozyme fitness (log ratio)” value read?
**A.** The value was 1.02.

**Q.** Which “polymerase ribozyme fitness (log ratio)” value does the source give for U59A C70A C102A here?
**A.** The value was -5.39.

**Q.** For G57U G61C G135A, which “polymerase ribozyme fitness (log ratio)” value is on record?
**A.** Its value is -2.69.

**Q.** For G58A C102U C114A, which “polymerase ribozyme fitness (log ratio)” value is on record?
**A.** Its value is -4.78.

**Q.** Which “polymerase ribozyme fitness (log ratio)” value does the source give for G58C G61A U92C here?
**A.** The value was -1.98.

**Q.** With G58A G61A C73A U92A as the variant, how does the “polymerase ribozyme fitness (log ratio)” value read?
**A.** Its value is -5.1.

**Q.** For G58U G69A A111C, which “polymerase ribozyme fitness (log ratio)” value is on record?
**A.** The value was -5.38.

**Q.** Which “polymerase ribozyme fitness (log ratio)” value does the source give for U59A U92C here?
**A.** Its value is -1.76.

**Q.** For G58A U109A, which “polymerase ribozyme fitness (log ratio)” value is on record?
**A.** Its value is -4.85.

**Q.** With G58C C62U as the variant, how does the “polymerase ribozyme fitness (log ratio)” value read?
**A.** Its value is -1.01.

**Q.** With U59A C76U as the variant, how does the “polymerase ribozyme fitness (log ratio)” value read?
**A.** The value was -0.808.

**Q.** Which “polymerase ribozyme fitness (log ratio)” value does the source give for G58C C62U C114A G127A U130G here?
**A.** Its value is -5.36.

**Q.** Which “polymerase ribozyme fitness (log ratio)” value does the source give for G58C G61U C94A U116A here?
**A.** Its value is -3.54.

**Q.** With G58U C124A as the variant, how does the “polymerase ribozyme fitness (log ratio)” value read?
**A.** The value was 1.26.

**Q.** With G58A U96A as the variant, how does the “polymerase ribozyme fitness (log ratio)” value read?
**A.** Its value is -0.747.

**Q.** For G57U G60U C123U, which “polymerase ribozyme fitness (log ratio)” value is on record?
**A.** The value was 0.317.

**Q.** Which “polymerase ribozyme fitness (log ratio)” value does the source give for G57U G107U here?
**A.** The value was -5.11.

**Q.** With G58C C62U U133A as the variant, how does the “polymerase ribozyme fitness (log ratio)” value read?
**A.** Its value is -0.0723.

**Q.** With G58U A75U C79A C89A G120C C123U as the variant, how does the “polymerase ribozyme fitness (log ratio)” value read?
**A.** Its value is -4.72.

**Q.** With G58A C82U G93U C94U U96C C123U as the variant, how does the “polymerase ribozyme fitness (log ratio)” value read?
**A.** Its value is -3.17.

**Q.** Which “polymerase ribozyme fitness (log ratio)” value does the source give for U59C C97U C114G here?
**A.** The value was -4.47.

**Q.** With U59A C104A as the variant, how does the “polymerase ribozyme fitness (log ratio)” value read?
**A.** The value was -1.75.

**Q.** For U59A G61U G117U, which “polymerase ribozyme fitness (log ratio)” value is on record?
**A.** Its value is -2.27.

**Q.** For G58C G60U G93U U96G, which “polymerase ribozyme fitness (log ratio)” value is on record?
**A.** The value was -1.73.

**Q.** With U59A C89A C101U G113U as the variant, how does the “polymerase ribozyme fitness (log ratio)” value read?
**A.** Its value is -3.68.

**Q.** For U59C C79U C114U, which “polymerase ribozyme fitness (log ratio)” value is on record?
**A.** Its value is -1.91.

**Q.** Which “polymerase ribozyme fitness (log ratio)” value does the source give for G58C G113U here?
**A.** Its value is -2.87.

**Q.** With U59A A74U as the variant, how does the “polymerase ribozyme fitness (log ratio)” value read?
**A.** Its value is -0.959.

**Q.** With G58C G71U C82G C88G as the variant, how does the “polymerase ribozyme fitness (log ratio)” value read?
**A.** The value was -2.93.

**Q.** For U59A A105G G113A U130C G135U, which “polymerase ribozyme fitness (log ratio)” value is on record?
**A.** The value was -5.1.

**Q.** Which “polymerase ribozyme fitness (log ratio)” value does the source give for G58A A84U here?
**A.** Its value is -0.731.

**Q.** Which “polymerase ribozyme fitness (log ratio)” value does the source give for G57U G110A here?
**A.** The value was -1.16.

**Q.** With G58U G60C G117U C123A as the variant, how does the “polymerase ribozyme fitness (log ratio)” value read?
**A.** Its value is -2.45.

**Q.** With U59A G113U as the variant, how does the “polymerase ribozyme fitness (log ratio)” value read?
**A.** The value was -2.9.

**Q.** For G58U C94U C101G, which “polymerase ribozyme fitness (log ratio)” value is on record?
**A.** Its value is -1.75.

**Q.** For U59A A105C U112C, which “polymerase ribozyme fitness (log ratio)” value is on record?
**A.** Its value is -0.41.

**Q.** For G58A G69A C88G A121U, which “polymerase ribozyme fitness (log ratio)” value is on record?
**A.** Its value is -2.86.

**Q.** With G57U U129G as the variant, how does the “polymerase ribozyme fitness (log ratio)” value read?
**A.** Its value is -1.65.

**Q.** With G58U U106C C124U U130A as the variant, how does the “polymerase ribozyme fitness (log ratio)” value read?
**A.** The value was -0.269.

**Q.** Which “polymerase ribozyme fitness (log ratio)” value does the source give for G57U G69U C115U G128A here?
**A.** The value was -1.11.
